# Test results published in patent publication KR20140148294A (dated 2014).
# Target: IGF-1R 단백질 (Sino biological Inc. 10164H08H) (UniProt P08069 31-932)
# Assay: ELISA, coated IGF-1R (50 ng/well), anti-human Fc-HRP
# IGF-1R 단백질 (Sino biological Inc. 10164H08H), sequence (P08069 31-932 limits assumed): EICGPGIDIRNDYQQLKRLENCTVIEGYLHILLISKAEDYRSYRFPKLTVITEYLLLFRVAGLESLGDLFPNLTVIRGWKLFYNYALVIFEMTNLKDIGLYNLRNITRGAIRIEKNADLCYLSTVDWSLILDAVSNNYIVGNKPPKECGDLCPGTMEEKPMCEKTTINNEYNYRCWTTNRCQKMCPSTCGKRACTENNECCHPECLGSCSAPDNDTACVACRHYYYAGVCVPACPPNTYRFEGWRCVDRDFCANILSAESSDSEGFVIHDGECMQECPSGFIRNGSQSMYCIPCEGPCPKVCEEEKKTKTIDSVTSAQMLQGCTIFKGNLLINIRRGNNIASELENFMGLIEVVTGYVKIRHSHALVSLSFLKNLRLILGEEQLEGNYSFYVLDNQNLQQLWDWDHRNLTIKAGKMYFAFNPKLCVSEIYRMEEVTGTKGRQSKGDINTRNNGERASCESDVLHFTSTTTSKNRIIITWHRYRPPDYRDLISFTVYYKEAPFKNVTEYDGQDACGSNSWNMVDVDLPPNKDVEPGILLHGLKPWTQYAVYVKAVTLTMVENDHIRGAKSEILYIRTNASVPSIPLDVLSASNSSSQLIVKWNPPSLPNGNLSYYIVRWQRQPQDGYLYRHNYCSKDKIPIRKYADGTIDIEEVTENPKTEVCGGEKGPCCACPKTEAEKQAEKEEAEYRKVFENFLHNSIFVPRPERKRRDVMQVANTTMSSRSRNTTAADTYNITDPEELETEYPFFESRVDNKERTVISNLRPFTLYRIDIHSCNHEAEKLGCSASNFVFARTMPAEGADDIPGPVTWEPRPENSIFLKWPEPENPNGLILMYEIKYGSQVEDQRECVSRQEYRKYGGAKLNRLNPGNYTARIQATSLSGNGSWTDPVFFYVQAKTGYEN
binder,measurement,value
"MKJP2 인간 단일클론항체 (antibody, human IgG1, lambda, V domains shown, Human anti-IGF-1R antibody without IL2, used as the control in the ELISA; also called 1229 클론) VH: EVQLLESGGGLAQPGGSLRLSCAASGFTFSGYAMSWVRQAPGKGLEWVSAISSDGGSTYYADSVKGRFTISRDNSKNTLYLQMNSLRAEDTAVYYCARDPWFSRWTAFDYWGQGTLVTVSS VL: QSVLTQPPSASGTPGQRVTISCSGSSSNIGNNAVNWYQQLPGTAPKLLIYSNSKRPSGVPDRFSGSKSGTSASLAISGLRSEDEADYYCGTWDYSLSGYVFGGGTKLTVLG",EC50,148 pM
